In patent US20230365662A1:
Values joined by “and” are separate entries in the source; they are usually repeats but may differ in a detail not shown here. Equal values may be shown once.

Target: HRgpA-6H (Porphyromonas gingivalis) (UniProt P28784)
Assay: ELISA, Fab FASEBA supernatant on coated HRgpA-6H

UniProt P28784, sequence (P28784 228-991 limits assumed): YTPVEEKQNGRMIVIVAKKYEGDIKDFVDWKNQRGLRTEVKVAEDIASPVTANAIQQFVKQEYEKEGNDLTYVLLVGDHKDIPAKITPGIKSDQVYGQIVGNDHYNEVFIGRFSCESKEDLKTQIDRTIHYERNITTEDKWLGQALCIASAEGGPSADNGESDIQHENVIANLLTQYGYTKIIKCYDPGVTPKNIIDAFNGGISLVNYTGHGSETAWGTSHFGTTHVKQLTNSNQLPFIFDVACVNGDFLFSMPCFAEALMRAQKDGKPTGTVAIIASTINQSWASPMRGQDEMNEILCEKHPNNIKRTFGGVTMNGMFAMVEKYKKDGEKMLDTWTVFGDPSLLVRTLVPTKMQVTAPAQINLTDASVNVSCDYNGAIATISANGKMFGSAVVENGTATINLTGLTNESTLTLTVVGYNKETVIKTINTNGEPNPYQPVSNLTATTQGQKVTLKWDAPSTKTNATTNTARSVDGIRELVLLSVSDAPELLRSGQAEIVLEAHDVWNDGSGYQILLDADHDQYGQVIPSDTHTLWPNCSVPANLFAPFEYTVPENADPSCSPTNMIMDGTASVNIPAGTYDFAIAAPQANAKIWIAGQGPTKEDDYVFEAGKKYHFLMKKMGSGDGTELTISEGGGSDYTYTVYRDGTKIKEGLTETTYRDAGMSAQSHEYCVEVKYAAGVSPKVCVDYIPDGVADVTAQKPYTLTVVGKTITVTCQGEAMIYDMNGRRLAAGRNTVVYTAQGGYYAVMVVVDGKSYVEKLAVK

Binder	OD450nm	Ratio OD(Variant)/OD(WT)
parental mouse (KB001) Fab FASEBA, VL variant L55Q (Fab, V domains shown) VH: EVQLKQSGPGLVAPSQSLSITCTVSGFSLSIYSVHWVRQPPGKGLEWLGMIWGGGSSDYNSALKSRLSISKDNSKSQVFLKMNSLQTDDTAMYYCARNGNFYAMDYWGQGTSVTVSS VL: QIVLTQSPAIMSASLGERVTMTCTASSSVSSSFLHWYQQKPGSSPQLWIYSTSNQASGVPARFSGSGSGTSYSLTISSMEAEDAATYYCHQYHHSPYIYTFGGGTKLEIK	0.662 OD450nm	0.845 ratio to WT
parental mouse (KB001) Fab FASEBA, VL variant S57E (Fab, V domains shown) VH: EVQLKQSGPGLVAPSQSLSITCTVSGFSLSIYSVHWVRQPPGKGLEWLGMIWGGGSSDYNSALKSRLSISKDNSKSQVFLKMNSLQTDDTAMYYCARNGNFYAMDYWGQGTSVTVSS VL: QIVLTQSPAIMSASLGERVTMTCTASSSVSSSFLHWYQQKPGSSPQLWIYSTSNLAEGVPARFSGSGSGTSYSLTISSMEAEDAATYYCHQYHHSPYIYTFGGGTKLEIK	0.751 OD450nm	0.921 ratio to WT
parental mouse (KB001) Fab FASEBA, VL variant A56N (Fab, V domains shown) VH: EVQLKQSGPGLVAPSQSLSITCTVSGFSLSIYSVHWVRQPPGKGLEWLGMIWGGGSSDYNSALKSRLSISKDNSKSQVFLKMNSLQTDDTAMYYCARNGNFYAMDYWGQGTSVTVSS VL: QIVLTQSPAIMSASLGERVTMTCTASSSVSSSFLHWYQQKPGSSPQLWIYSTSNLNSGVPARFSGSGSGTSYSLTISSMEAEDAATYYCHQYHHSPYIYTFGGGTKLEIK	0.712 OD450nm and 0.775 OD450nm	0.873 ratio to WT and 0.95 ratio to WT
parental mouse (KB001) Fab FASEBA, VL variant S57L (Fab, V domains shown) VH: EVQLKQSGPGLVAPSQSLSITCTVSGFSLSIYSVHWVRQPPGKGLEWLGMIWGGGSSDYNSALKSRLSISKDNSKSQVFLKMNSLQTDDTAMYYCARNGNFYAMDYWGQGTSVTVSS VL: QIVLTQSPAIMSASLGERVTMTCTASSSVSSSFLHWYQQKPGSSPQLWIYSTSNLALGVPARFSGSGSGTSYSLTISSMEAEDAATYYCHQYHHSPYIYTFGGGTKLEIK	0.781 OD450nm	0.958 ratio to WT
parental mouse (KB001) Fab FASEBA, VL variant S57R (Fab, V domains shown) VH: EVQLKQSGPGLVAPSQSLSITCTVSGFSLSIYSVHWVRQPPGKGLEWLGMIWGGGSSDYNSALKSRLSISKDNSKSQVFLKMNSLQTDDTAMYYCARNGNFYAMDYWGQGTSVTVSS VL: QIVLTQSPAIMSASLGERVTMTCTASSSVSSSFLHWYQQKPGSSPQLWIYSTSNLARGVPARFSGSGSGTSYSLTISSMEAEDAATYYCHQYHHSPYIYTFGGGTKLEIK	0.746 OD450nm	0.915 ratio to WT
parental mouse (KB001) Fab FASEBA, VL variant A56S (Fab, V domains shown) VH: EVQLKQSGPGLVAPSQSLSITCTVSGFSLSIYSVHWVRQPPGKGLEWLGMIWGGGSSDYNSALKSRLSISKDNSKSQVFLKMNSLQTDDTAMYYCARNGNFYAMDYWGQGTSVTVSS VL: QIVLTQSPAIMSASLGERVTMTCTASSSVSSSFLHWYQQKPGSSPQLWIYSTSNLSSGVPARFSGSGSGTSYSLTISSMEAEDAATYYCHQYHHSPYIYTFGGGTKLEIK	0.772 OD450nm and 0.751 OD450nm and 0.774 OD450nm	0.947 ratio to WT and 0.921 ratio to WT and 0.949 ratio to WT
parental mouse (KB001) Fab FASEBA, VL variant S57A (Fab, V domains shown) VH: EVQLKQSGPGLVAPSQSLSITCTVSGFSLSIYSVHWVRQPPGKGLEWLGMIWGGGSSDYNSALKSRLSISKDNSKSQVFLKMNSLQTDDTAMYYCARNGNFYAMDYWGQGTSVTVSS VL: QIVLTQSPAIMSASLGERVTMTCTASSSVSSSFLHWYQQKPGSSPQLWIYSTSNLAAGVPARFSGSGSGTSYSLTISSMEAEDAATYYCHQYHHSPYIYTFGGGTKLEIK	0.806 OD450nm	0.988 ratio to WT
parental mouse (KB001) Fab FASEBA, VL variant A56V (Fab, V domains shown) VH: EVQLKQSGPGLVAPSQSLSITCTVSGFSLSIYSVHWVRQPPGKGLEWLGMIWGGGSSDYNSALKSRLSISKDNSKSQVFLKMNSLQTDDTAMYYCARNGNFYAMDYWGQGTSVTVSS VL: QIVLTQSPAIMSASLGERVTMTCTASSSVSSSFLHWYQQKPGSSPQLWIYSTSNLVSGVPARFSGSGSGTSYSLTISSMEAEDAATYYCHQYHHSPYIYTFGGGTKLEIK	0.794 OD450nm and 0.795 OD450nm	0.974 ratio to WT and 0.975 ratio to WT
parental mouse (KB001) Fab FASEBA, VL variant S57Q (Fab, V domains shown) VH: EVQLKQSGPGLVAPSQSLSITCTVSGFSLSIYSVHWVRQPPGKGLEWLGMIWGGGSSDYNSALKSRLSISKDNSKSQVFLKMNSLQTDDTAMYYCARNGNFYAMDYWGQGTSVTVSS VL: QIVLTQSPAIMSASLGERVTMTCTASSSVSSSFLHWYQQKPGSSPQLWIYSTSNLAQGVPARFSGSGSGTSYSLTISSMEAEDAATYYCHQYHHSPYIYTFGGGTKLEIK	0.658 OD450nm	0.807 ratio to WT
parental mouse (KB001) Fab FASEBA, VL variant L55H (Fab, V domains shown) VH: EVQLKQSGPGLVAPSQSLSITCTVSGFSLSIYSVHWVRQPPGKGLEWLGMIWGGGSSDYNSALKSRLSISKDNSKSQVFLKMNSLQTDDTAMYYCARNGNFYAMDYWGQGTSVTVSS VL: QIVLTQSPAIMSASLGERVTMTCTASSSVSSSFLHWYQQKPGSSPQLWIYSTSNHASGVPARFSGSGSGTSYSLTISSMEAEDAATYYCHQYHHSPYIYTFGGGTKLEIK	0.64 OD450nm	0.817 ratio to WT
parental mouse (KB001) Fab FASEBA, VL variant A56T (Fab, V domains shown) VH: EVQLKQSGPGLVAPSQSLSITCTVSGFSLSIYSVHWVRQPPGKGLEWLGMIWGGGSSDYNSALKSRLSISKDNSKSQVFLKMNSLQTDDTAMYYCARNGNFYAMDYWGQGTSVTVSS VL: QIVLTQSPAIMSASLGERVTMTCTASSSVSSSFLHWYQQKPGSSPQLWIYSTSNLTSGVPARFSGSGSGTSYSLTISSMEAEDAATYYCHQYHHSPYIYTFGGGTKLEIK	0.731 OD450nm	0.896 ratio to WT
parental mouse (KB001) Fab FASEBA, VL variant S57K (Fab, V domains shown) VH: EVQLKQSGPGLVAPSQSLSITCTVSGFSLSIYSVHWVRQPPGKGLEWLGMIWGGGSSDYNSALKSRLSISKDNSKSQVFLKMNSLQTDDTAMYYCARNGNFYAMDYWGQGTSVTVSS VL: QIVLTQSPAIMSASLGERVTMTCTASSSVSSSFLHWYQQKPGSSPQLWIYSTSNLAKGVPARFSGSGSGTSYSLTISSMEAEDAATYYCHQYHHSPYIYTFGGGTKLEIK	0.712 OD450nm	0.873 ratio to WT
parental mouse (KB001) Fab FASEBA, VL variant A56Q (Fab, V domains shown) VH: EVQLKQSGPGLVAPSQSLSITCTVSGFSLSIYSVHWVRQPPGKGLEWLGMIWGGGSSDYNSALKSRLSISKDNSKSQVFLKMNSLQTDDTAMYYCARNGNFYAMDYWGQGTSVTVSS VL: QIVLTQSPAIMSASLGERVTMTCTASSSVSSSFLHWYQQKPGSSPQLWIYSTSNLQSGVPARFSGSGSGTSYSLTISSMEAEDAATYYCHQYHHSPYIYTFGGGTKLEIK	0.705 OD450nm	0.865 ratio to WT
parental mouse (KB001) Fab FASEBA, VL variant A56M (Fab, V domains shown) VH: EVQLKQSGPGLVAPSQSLSITCTVSGFSLSIYSVHWVRQPPGKGLEWLGMIWGGGSSDYNSALKSRLSISKDNSKSQVFLKMNSLQTDDTAMYYCARNGNFYAMDYWGQGTSVTVSS VL: QIVLTQSPAIMSASLGERVTMTCTASSSVSSSFLHWYQQKPGSSPQLWIYSTSNLMSGVPARFSGSGSGTSYSLTISSMEAEDAATYYCHQYHHSPYIYTFGGGTKLEIK	0.802 OD450nm and 0.701 OD450nm	0.983 ratio to WT and 0.86 ratio to WT
parental mouse (KB001) Fab FASEBA, VL variant S57W (Fab, V domains shown) VH: EVQLKQSGPGLVAPSQSLSITCTVSGFSLSIYSVHWVRQPPGKGLEWLGMIWGGGSSDYNSALKSRLSISKDNSKSQVFLKMNSLQTDDTAMYYCARNGNFYAMDYWGQGTSVTVSS VL: QIVLTQSPAIMSASLGERVTMTCTASSSVSSSFLHWYQQKPGSSPQLWIYSTSNLAWGVPARFSGSGSGTSYSLTISSMEAEDAATYYCHQYHHSPYIYTFGGGTKLEIK	0.784 OD450nm	0.961 ratio to WT
parental mouse (KB001) Fab FASEBA, VL variant A56R (Fab, V domains shown) VH: EVQLKQSGPGLVAPSQSLSITCTVSGFSLSIYSVHWVRQPPGKGLEWLGMIWGGGSSDYNSALKSRLSISKDNSKSQVFLKMNSLQTDDTAMYYCARNGNFYAMDYWGQGTSVTVSS VL: QIVLTQSPAIMSASLGERVTMTCTASSSVSSSFLHWYQQKPGSSPQLWIYSTSNLRSGVPARFSGSGSGTSYSLTISSMEAEDAATYYCHQYHHSPYIYTFGGGTKLEIK	0.728 OD450nm and 0.734 OD450nm and 0.751 OD450nm	0.893 ratio to WT and 0.9 ratio to WT and 0.921 ratio to WT
parental mouse (KB001) Fab FASEBA, VL variant S57N (Fab, V domains shown) VH: EVQLKQSGPGLVAPSQSLSITCTVSGFSLSIYSVHWVRQPPGKGLEWLGMIWGGGSSDYNSALKSRLSISKDNSKSQVFLKMNSLQTDDTAMYYCARNGNFYAMDYWGQGTSVTVSS VL: QIVLTQSPAIMSASLGERVTMTCTASSSVSSSFLHWYQQKPGSSPQLWIYSTSNLANGVPARFSGSGSGTSYSLTISSMEAEDAATYYCHQYHHSPYIYTFGGGTKLEIK	0.813 OD450nm	0.997 ratio to WT
parental mouse (KB001) Fab FASEBA, VL variant A56P (Fab, V domains shown) VH: EVQLKQSGPGLVAPSQSLSITCTVSGFSLSIYSVHWVRQPPGKGLEWLGMIWGGGSSDYNSALKSRLSISKDNSKSQVFLKMNSLQTDDTAMYYCARNGNFYAMDYWGQGTSVTVSS VL: QIVLTQSPAIMSASLGERVTMTCTASSSVSSSFLHWYQQKPGSSPQLWIYSTSNLPSGVPARFSGSGSGTSYSLTISSMEAEDAATYYCHQYHHSPYIYTFGGGTKLEIK	0.748 OD450nm	0.917 ratio to WT
parental mouse (KB001) Fab FASEBA, VL variant S57I (Fab, V domains shown) VH: EVQLKQSGPGLVAPSQSLSITCTVSGFSLSIYSVHWVRQPPGKGLEWLGMIWGGGSSDYNSALKSRLSISKDNSKSQVFLKMNSLQTDDTAMYYCARNGNFYAMDYWGQGTSVTVSS VL: QIVLTQSPAIMSASLGERVTMTCTASSSVSSSFLHWYQQKPGSSPQLWIYSTSNLAIGVPARFSGSGSGTSYSLTISSMEAEDAATYYCHQYHHSPYIYTFGGGTKLEIK	0.791 OD450nm	0.97 ratio to WT
parental mouse (KB001) Fab FASEBA, VL variant L55S (Fab, V domains shown) VH: EVQLKQSGPGLVAPSQSLSITCTVSGFSLSIYSVHWVRQPPGKGLEWLGMIWGGGSSDYNSALKSRLSISKDNSKSQVFLKMNSLQTDDTAMYYCARNGNFYAMDYWGQGTSVTVSS VL: QIVLTQSPAIMSASLGERVTMTCTASSSVSSSFLHWYQQKPGSSPQLWIYSTSNSASGVPARFSGSGSGTSYSLTISSMEAEDAATYYCHQYHHSPYIYTFGGGTKLEIK	0.655 OD450nm	0.836 ratio to WT
parental mouse (KB001) Fab FASEBA, VL variant S57F (Fab, V domains shown) VH: EVQLKQSGPGLVAPSQSLSITCTVSGFSLSIYSVHWVRQPPGKGLEWLGMIWGGGSSDYNSALKSRLSISKDNSKSQVFLKMNSLQTDDTAMYYCARNGNFYAMDYWGQGTSVTVSS VL: QIVLTQSPAIMSASLGERVTMTCTASSSVSSSFLHWYQQKPGSSPQLWIYSTSNLAFGVPARFSGSGSGTSYSLTISSMEAEDAATYYCHQYHHSPYIYTFGGGTKLEIK	0.785 OD450nm and 0.787 OD450nm and 0.797 OD450nm	0.963 ratio to WT and 0.965 ratio to WT and 0.977 ratio to WT
